These results are taken from US6653533 (PURDUE RESEARCH FOUNDATION, dated 1997).

In this experiment the target is T1, Pti6 (Solanum lycopersicum (Tomato) …, UniProt O04682 1-248, limits assumed).
T1 construct: Tested as a yeast two-hybrid prey expressed from vector pJG4-5; also called prey of Pti6 (in pJG4-5)
Nature of the experiment: yeast two-hybrid (LEU2 and lacZ reporters), Bicoid bait in pEG202, prey in pJG4-5. How it is done: Figure 2: FIG. 2 sets forth results of the Experiment described in Example 1 herein. Briefly, EGY48 yeast cells containing a prey of Pti4, Pti5 or Pti6 (in pJG4–5), and a bait of Pto, pto or Bicoid (in pEG202) were grown on galactose Ura⁻His⁻Trp⁻X-Gal medium. The plates were incubated at 30° C. for three days and photographed. Four independent, representative colonies are shown for each bait/prey combination.
Yeast strains carrying the Pto bait and a prey of Pti4, Pti5 or Pti6 grew in the absence of leucine, indicative of the LEU2 reporter gene activation. When grown on X-Gal plates, these yeast cells were blue as a result of the lacZ reporter gene activation. As determined by the intensity of blue color, the strength of interaction of Pto with these three preys is in the order of Pti6>Pti4>Pti5.

T1 sequence (O04682 whole entry): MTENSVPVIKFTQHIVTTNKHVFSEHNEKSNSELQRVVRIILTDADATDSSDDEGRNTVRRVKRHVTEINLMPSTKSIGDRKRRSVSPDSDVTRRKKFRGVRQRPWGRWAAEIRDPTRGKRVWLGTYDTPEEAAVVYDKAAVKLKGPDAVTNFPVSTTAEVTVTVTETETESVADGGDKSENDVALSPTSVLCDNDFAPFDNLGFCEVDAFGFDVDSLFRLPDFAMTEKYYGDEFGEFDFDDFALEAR

B1: Bicoid (other, UniProt P09081 2-160, looked up)
chain: AQPPPDQNFYHHPLPHTHTHPHPHSHPHPHSHPHPHHQHPQLQLPPQFRNPFDLLFDERTGAINYNYIRPYLPNQMPKPDVFPSEELPDSLVMRRPRRTRTTFTSSQIAELEQHFLQGRYLTAPRLADLSAKLALGTAQVKIWFKNRRRRHKIQSDQHK
notes: Control bait expressed from vector pEG202; also called arbitrary bait Bicoid (in pEG202)
For B1, the binding result was “no binding”.
